# Measured values published in patent US9045765B2, “EPSP synthase genes conferring herbicide resistance” (priority 2006, dated 2015).
# Legend:
# [1] = system: GRG31 EPSP synthase enzymatic activity; experiment: Temperature optimum of GRG31 enzymatic activity (phosphate release, AMPLEX Red fluorescence); type: biochemical, Sphingobacterium multivorum/faecium
# Protocol: Following IPTG induction, the GRG31 protein was purified to homogeneity by standard methods. […] Following incubation, the enzyme was heated to 90° C. for 1 minute to denature the enzyme, and then cooled to 4° C. The phosphate generated by each reaction was then added to a second assay containing inosine, purine nucleoside phosphorylase, xanthine oxidase, horseradish peroxidase, and the fluorescent substrate AMPLEX® Red (U.S. Patent Application No. 60/741,166, filed Dec. 1, 2005). Following incubation for 15 minutes at room temperature, fluorescent product was quantified using a Gemini XPS spectrofluorometer (Molecular Devices Corporation, Sunnyvale, Calif.). EPSP synthase product formation was measured, and is expressed in Table 5 as a percentage of maximal activity.
# [2] = system: GRG31 EPSP synthase enzymatic activity; experiment: Thermal stability of GRG31 enzymatic activity at 37° C. (AMPLEX Red assay, 2 mM glyphosate); type: biochemical, Sphingobacterium multivorum/faecium
# Protocol: Following IPTG induction, the GRG31 protein was purified to homogeneity by standard methods. To measure enzymatic activity, the purified GRG31 enzyme was diluted to an appropriate assay concentration in buffer containing HEPES (50 mM, pH 7) and 50 mM KCl, and then incubated at 37° C. for 0, 2, 6 or 22 hours. A control sample was incubated alongside at 4° C. At each timepoint, an aliquot was removed from each sample and enzymatic assays were carried out in a final volume of 50 μl containing 0.5 mM shikimate-3-phosphate, 200 uM phosphoenolpyruvate (PEP), 1 U/ml xanthine oxidase, 2 U/ml nucleoside phosphorylase, 2.25 mM inosine, 1 U/ml horseradish peroxidase, 2 mM glyphosate, 50 mM HEPES/KOH pH 7.0, 100 mM KCl, and AMPLEX® Red (Invitrogen) according to the manufacturer's instructions. Assays were started by adding shikimate-3-phosphate. EPSP synthase activity was measured using a Spectramax Gemini XPS fluorescence spectrometer (Molecular Dynamics, excitation: 555 nm; emission: 590 nm). EPSP synthase thermal stability was calculated as the percentage of enzymatic activity at each timepoint at 37° C. relative to enzymatic activity in the control sample incubated alongside at 4° C. (Table 6).
molecule,measurement,setting,value
"GRG31: glyphosate-resistant EPSP synthase, predicted translation product of grg31, from strain ATX21318 (protein, Sphingobacterium multivorum/faecium, glyphosate-resistant EPSP synthase, predicted translation product of grg31, from strain ATX21318) MNQQVITLTHPSKKIQGTVQLTGSKSESNRALIIQSLSKGQVEIANLSEAADTVTLNRVLQIASDPKPGFNTIDIGPAGTAMRFLTAYLNLVKGNFILTGTERMQQRPIGILVDAMKEIGADIHYDKKVGYPPLKIEGGLFQEKDRVKIKGNISSQYISALLLIAPALKKGLTLEIEGELTSRPYVSMTLDMLKSVGIQHEWKNNAIKIAPQAFEKQTIYVEPDWSAASYWYAIAALADANASIVLPGLRKNSLQGDIAIISIMEHFGVQSSFESDGLHLNKKVIGSDVSLFNFKECPDLAQTVVVVAAALKRDVSFTGLETLKIKETDRIAALQKEIAKFGAELIEDGDTYHLKTAQVYQPEEVTFDTYEDHRMAMAFAPLALVFDQIKIAEPQVVEKSYPDFWNHLQAQAFVIE",Percentage of Maximal Activity,"[1]; 10 ° C., 15 minutes incubation",42%
same,Percentage of Maximal Activity,"[1]; 20 ° C., 15 minutes incubation",62%
same,Percentage of Maximal Activity,"[1]; 30 ° C., 15 minutes incubation",69%
same,Percentage of Maximal Activity,"[1]; 40 ° C., 15 minutes incubation",80%
same,Percentage of Maximal Activity,"[1]; 50 ° C., 15 minutes incubation",100%
same,Percentage of Maximal Activity,"[1]; 60 ° C., 15 minutes incubation",96%
same,Percentage of Maximal Activity,[1]; 70 ° C.,67%
same,Percentage of Maximal Activity,[1]; 80 ° C.,36%
same,Percentage of control (enzymatic activity at 37° C. relative to control at 4° C.),[2]; 0 hours at 37° C.,100%
same,Percentage of control (enzymatic activity at 37° C. relative to control at 4° C.),[2]; 2 hours at 37° C.,86%
same,Percentage of control (enzymatic activity at 37° C. relative to control at 4° C.),[2]; 6 hours at 37° C.,68%
same,Percentage of control (enzymatic activity at 37° C. relative to control at 4° C.),[2]; 22 hours at 37° C.,29%
